# Where a chain is given by its changes, count along the chain named.
# B1: TR01H040-E22Hh/none-Hi-Kn010G3/L0235-k0 (antibody, V domains shown)
# VH: QVQLVESGGGLVQPGRSLRLSCAASGFTFSNAWMHWVRQAPGKGLEWVAQIKDKSQNYATYYAESVKGRFTISRADSKNSIYLQMNSLKTEDTAVYYCRYVHYSASYGVDAWGQGTTVTVSS
# VL: DIVMTQSPLSLPVTPGEPASISCRSSQEPVHSNRNTYLHWYQQKPGQAPRLLIYKVSNRFSGVPDRFSGSGSGTDFTLKISRVEAEDVGVYYCYQGTQVPYTFGQGTKLEIK
# notes: one-arm
# B2: TR01H040-E22Hh/none-Hi-Kn010G3/TR01L008-k0 (antibody, V domains shown)
# VH: B1 VH
# VL: B1 VL with R24Q, S25A, Q27E, E28S, P29L, S61R, Y94G
# notes: one-arm
# B3: TR01H040-E22Hh/none-Hi-Kn010G3/L0249-k0 (antibody, V domains shown)
# VH: B1 VH
# VL: B1 VL with S25P, E28S, L38I, H39Q, Y94S
# notes: one-arm
# B4: TR01H040-E22Hh/none-Hi-Kn010G3/L0243-k0 (antibody, V domains shown)
# VH: B1 VH
# VL: B1 VL with Q27E, E28P, S61R, Y94G
# notes: one-arm
# B5: TR01H040-E22Hh/none-Hi-Kn010G3/TR01L010-k0 (antibody, V domains shown)
# VH: B1 VH
# VL: B1 VL with E28S, P29L, S61R, Y94G, L109V, K112E
# notes: one-arm
# B6: TR01H040-E22Hh/none-Hi-Kn010G3/L0238-k0 (antibody, V domains shown)
# VH: B1 VH
# VL: B1 VL with Q27E, E28P
# notes: one-arm
# B7: TR01H040-E22Hh/none-Hi-Kn010G3/TR01L009-k0 (antibody, V domains shown)
# VH: B1 VH
# VL: B1 VL with E28S, P29L, Q42L, A48S, R50Q, S61R, Y94G
# notes: one-arm
# B8: TR01H040-E22Hh/none-Hi-Kn010G3/L0240-k0 (antibody, V domains shown)
# VH: B1 VH
# VL: B1 VL with Q27E, E28S
# notes: one-arm
# B9: TR01H040-E22Hh/none-Hi-Kn010G3/L0246-k0 (antibody, V domains shown)
# VH: B1 VH
# VL: B1 VL with E28S, L38I, H39Q, Y94S
# notes: one-arm
# B10: TR01H040-E22Hh/none-Hi-Kn010G3/L0237-k0 (antibody, V domains shown)
# VH: B1 VH
# VL: B1 VL with L38I
# notes: one-arm
# B11: TR01H040-E22Hh/none-Hi-Kn010G3/L0248-k0 (antibody, V domains shown)
# VH: B1 VH
# VL: B1 VL with S25P, E28S, L38I, H39Q
# notes: one-arm
# B12: TR01H040-E22Hh/none-Hi-Kn010G3/L0250-k0 (antibody, V domains shown)
# VH: B1 VH
# VL: B1 VL with S25P, E28S, L38I, H39Q, Y94I
# notes: one-arm
# B13: TR01H040-E22Hh/none-Hi-Kn010G3/L0236-k0 (antibody, V domains shown)
# VH: B1 VH
# VL: B1 VL with S61W
# notes: one-arm
# B14: TR01H040-E22Hh/none-Hi-Kn010G3/L0239-k0 (antibody, V domains shown)
# VH: B1 VH
# VL: B1 VL with Q27E, E28S, S61R, Y94G
# notes: one-arm
# B15: TR01H040-E22Hh/none-Hi-Kn010G3/L0262-k0 (antibody, V domains shown)
# VH: B1 VH
# VL: B1 VL with E28P, Y94A
# notes: one-arm
# B16: TR01H040-E22Hh/none-Hi-Kn010G3/L0242-k0 (antibody, V domains shown)
# VH: B1 VH
# VL: B1 VL with Q27E, E28S, L38I
# notes: one-arm
# B17: TR01H040-E22Hh/none-Hi-Kn010G3/L0247-k0 (antibody, V domains shown)
# VH: B1 VH
# VL: B1 VL with E28S, L38I, H39Q, Y94I
# notes: one-arm
# B18: TR01H040-E22Hh/none-Hi-Kn010G3/L0241-k0 (antibody, V domains shown)
# VH: B1 VH
# VL: B1 VL with Q27E, E28S, S61W
# notes: one-arm
# Target: T1, soluble human CD3 epsilon chain (human, UniProt P07766 23-126)
# T1 construct: also called CD3ε
# Test: SPR
# T1 sequence (P07766 23-126 limits assumed): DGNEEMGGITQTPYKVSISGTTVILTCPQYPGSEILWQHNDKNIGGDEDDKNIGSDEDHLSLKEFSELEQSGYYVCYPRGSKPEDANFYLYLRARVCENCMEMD
row,Kd [nM],Binder
1,2.81,B1
2,29.3,B2
3,111,B3
4,24.6,B4
5,32.8,B5
6,2.91,B6
7,35.6,B7
8,2.17,B8
9,92.8,B9
10,10.2,B10
11,78.9,B11
12,21.5,B12
13,5.64,B13
14,23.1,B14
15,18.1,B15
16,3.58,B16
17,100,B17
18,3.48,B18

# Source: patent US20250066503A1, “CELL INJURY INDUCING THERAPEUTIC DRUG FOR USE IN CANCER THERAPY” (CHUGAI SEIYAKU KABUSHIKI KAISHA, priority 2016, published 2025)
